Data from patent US20240417485A1 (UNIVERSITY OF PITTSBURGH OF THE COMMONWEALTH SYSTEM OF …, published 2024).

Assays:
[1] = molecular target: T1, Human uPAR-His recombinant protein (human, UniProt Q03405 23-303); assay: ELISA, recombinant human uPAR coated, anti-human IgG1 Fc-HRP detection
T1 construct: Bought protein; also called recombinant human uPAR; recombinant human uPAR protein; not shown: His tag

human CD3 protein = human CD3 protein (human); assay: ELISA, human CD3 protein coated, anti-human IgG1 Fc-HRP detection
Description: (§1) ELISA: The binding and specificity of VH, VH-Fc, and DbTE to uPAR or CD3 were analyzed by ELISA. uPAR-His protein or CD3 protein was coated at 50 ng/well at 4° C. overnight, then blocked with 5% milk for 1 hours at 37° C. After washing 3 times by 0.05% PBST, 3-fold serially diluted VH and VH-Fc binders were incubated on the plate for 1 hour at 37° C. The binding of VH candidates was detected by anti-FLAG M2-peroxidase (HRP) antibody (Sigma-Aldrich) while VH-Fc or DbTE binding was detected by HRP conjugated goat anti-human IgG1 Fc (Sigma-Aldrich) at 1:1000 dilution. The plates were washed 3 times by 0.05% PBST between each reagent's incubation. Binding activity was detected using 3,3′,5,5′-tetramethylbenzidine (Sigma-Aldrich) and was stopped by TMB stop buffer (ScyTek Laboratories). Absorbance was read at 450 nm.

recombinant uPAR-Biotin = molecular target: T2, recombinant uPAR-Biotin (human, UniProt Q03405 23-303, limits assumed, biotin, site not stated); assay: BLItz, uPAR-Biotin on streptavidin biosensor
T2 construct: also called human uPAR (BLItz)

[2] = molecular target: T1, Human uPAR-His recombinant protein; assay: ELISA, uPAR-His coated, anti-FLAG-HRP detection
Description: as §1

| Binder | EC50 [1] [nM] | EC50 (human CD3 protein) [nM] | Kd (recombinant uPAR-Biotin) [nM] | koff (recombinant uPAR-Biotin) [s⁻¹] | kon (recombinant uPAR-Biotin) [M⁻¹ s⁻¹] | EC50 [2] [nM] |
| --- | --- | --- | --- | --- | --- | --- |
| DbTE 3 (bispecific antibody, human IgG1, Single chain: VH 3, linker, humanized OKT3 scFv (VH-(G4S)6-VL), human IgG1 Fc with LALAPG mutations, His tag; also called anti-uPAR DbTE 3; domain-based bispecific T cell engager 3) EVQLVESGGGLVQPGGSLRLSCAASGFTFSRYWMSWVRQAPGKALEWIGEINHSGSTNYNPSLKSLVTISRDNSKNTLYLQMNSLRAEDTATYYCARSLVPALSYYYYYGMDVWGQGTTVTVSSGSGSSGSGSSGSGSSQVQLVQSGGGVVQPGRSLRLSCKASGYTFTRYTMHWVRQAPGKGLEWIGYINPSRGYTNYNQKVKDRFTISRDNSKNTAFLQMDSLRPEDTGVYFCARYYDDHYCLDYWGQGTPVTVSSGGGGSGGGGSGGGGSGGGGSGGGGSGGGGSDIQMTQSPSSLSASVGDRVTITCSASSSVSYMNWYQQTPGKAPKRWIYDTSKLASGVPSRFSGSGSGTDYTFTISSLQPEDIATYYCQQWSSNPFTFGQGTKLQITRGSGSSGDKTHTCPPCPAPEAAGGPSVFLFPPKPKDTLMISRTPEVTCVVVDVSHEDPEVKFNWYVDGVEVHNAKTKPREEQYNSTYRVVSVLTVLHQDWLNGKEYKCKVSNKALGAPIEKTISKAKGQPREPQVYTLPPSRDELTKNQVSLTCLVKGFYPSDIAVEWESNGQPENNYKTTPPVLDSDGSFFLYSKLTVDKSRWQQGNVFSCSVMHEALHNHYTQKSLSLSPGKGSHHHHHH | 7.7 | 28.8 | 6.6 | 0.00072 | 110000 |  |
| DbTE 115 (bispecific antibody, human IgG1) EVQLVESGGGLVQPGGSLRLSCKGSGFTFGDYAIGWVRQAPGQRLEWIGWINTNSGSPKYAQGFTGRFTISRDNSKNTLYLQMNSLRAEDTAVYYCATDVVVPWGQGSQVTVSSGSGSSGSGSSGSGSSQVQLVQSGGGVVQPGRSLRLSCKASGYTFTRYTMHWVRQAPGKGLEWIGYINPSRGYTNYNQKVKDRFTISRDNSKNTAFLQMDSLRPEDTGVYFCARYYDDHYCLDYWGQGTPVTVSSGGGGSGGGGSGGGGSGGGGSGGGGSGGGGSDIQMTQSPSSLSASVGDRVTITCSASSSVSYMNWYQQTPGKAPKRWIYDTSKLASGVPSRFSGSGSGTDYTFTISSLQPEDIATYYCQQWSSNPFTFGQGTKLQITRGSGSSGDKTHTCPPCPAPEAAGGPSVFLFPPKPKDTLMISRTPEVTCVVVDVSHEDPEVKFNWYVDGVEVHNAKTKPREEQYNSTYRVVSVLTVLHQDWLNGKEYKCKVSNKALGAPIEKTISKAKGQPREPQVYTLPPSRDELTKNQVSLTCLVKGFYPSDIAVEWESNGQPENNYKTTPPVLDSDGSFFLYSKLTVDKSRWQQGNVFSCSVMHEALHNHYTQKSLSLSPGKGSHHHHHH | 28 | 8.7 | 1.2 | 4.2e-05 | 36000 |  |
| VH 3 (VHH, Fully human single VH domain from a phage library, expressed in E. coli; It was purified on Ni-NTA and detected with anti-FLAG, so a His tag and a FLAG tag are implied; also called clone 3; anti-uPAR VH 3) VHH: EVQLVESGGGLVQPGGSLRLSCAASGFTFSRYWMSWVRQAPGKALEWIGEINHSGSTNYNPSLKSLVTISRDNSKNTLYLQMNSLRAEDTATYYCARSLVPALSYYYYYGMDVWGQGTTVTVSS |  |  | 17.1 | 0.0014 | 79000 | 12.1 |
| VH 115 (VHH, Fully human single VH domain from a phage library, expressed in E. coli; It was purified on Ni-NTA and detected with anti-FLAG, so a His tag and a FLAG tag are implied) VHH: EVQLVESGGGLVQPGGSLRLSCKGSGFTFGDYAIGWVRQAPGQRLEWIGWINTNSGSPKYAQGFTGRFTISRDNSKNTLYLQMNSLRAEDTAVYYCATDVVVPWGQGSQVTVSS |  |  | 1.7 | 3.6e-05 | 21000 | 34.2 |
